B1: Twister Ribozyme (parent)
chain: AACACUGCCAAUGCCGGUCCCAAGCCCGGAUAAAAGUGGAGGGGGCGG

Variants of: B1
Assay: self-cleavage, relative activity (ratio to wild type); higher = more cleavage; co-transcriptional

Variant	self-cleavage
C27A G41U	0.0984
C27A G41C	0.152
G29A C46G	0.838
G28A	0.897
G28C	0.894
G28U	0.91
G28U G36U	0.136
G28A C46U	0.918
G28A G39A	0.326
G28A G39C	0.154
C26U G29A	0.212
C27U U37G	0.342
C27U U37C	0.179
C27G G38C	0.0767
C27G G38U	0.093
C27G G38A	0.0803
A30C G38A	0.649
A30C G38U	0.715
A30C A40G	0.189
A30C A40U	0.0909
A30C A40C	0.103
C27A A32C	0.484
G28C G44U	0.738
G28C G44C	0.666

Variant	self-cleavage
G29A G36U	0.265
C26U A34U	0.124
C26U A34C	0.133
G29C G38C	0.736
G29C G38A	0.796
G29U C46A	0.876
G29U G42U	0.261
G29U G42C	0.388
G29A G48C	1.1
G29A G48U	0.916
G28A G36A	0.397
G28A G36U	0.15
G29U A33U	0.911
G29U A33C	0.821
G29A A33C	0.768
G29A A33U	0.759
C27U A40U	0.164
C27U A40C	0.159
C27U A40G	0.119
G29C A30G	0.91
G29C A30U	1.1
A30G A32U	0.962
A30G A32G	1.02
C27G G48A	0.102

Variant	self-cleavage
C27G G48C	0.147
G29C G44C	0.696
G29C G44A	0.791
G28C A34U	0.567
G28A U31G	0.916
G28A U31A	0.904
C27G U37A	0.106
C27U A32C	0.755
C27U A32U	0.842
C27U G44U	0.774
C27U G28A	0.478
C27A G36C	0.123
C27A G36A	0.121
C27A G36U	0.128
A30C U31G	0.839
C26U A40C	0.131
C26U A40G	0.0722
C26U A40U	0.131
G28U G44A	0.718
G28C G29A	1
G29A A32G	0.84
G28U G47C	0.287
G28U G45C	0.175
G28U G45A	0.637

Variant	self-cleavage
C27A G29U	0.132
C27A G29C	0.0808
C27A G29A	0.382
C27G A32C	0.137
C27G A32U	0.115
A30C G43A	0.187
C27U A30G	0.777
C27U A30U	0.758
G28U C46U	0.922
G28U G41U	0.419
G28A A40U	0.125
G28A A40C	0.163
G28A A40G	0.188
G28U A40G	0.155
G28U A40C	0.136
G28U A40U	0.156
C27U G29U	0.441
C27U G29A	0.687
C27U G29C	0.124
G28A G43A	0.191
G28A G43U	0.326
G28A G43C	0.163
C27G G41A	0.0929
C27G G41U	0.0753

Variant	self-cleavage
C27G G41C	0.0915
C26U C46G	0.307
C26U C46A	0.207
C26U C46U	0.519
G29U G48C	1.11
G28C U37A	0.241
G28C U37G	0.144
C27G G42U	0.0711
C27A G45C	0.144
G28C G47U	0.378
G28C G47A	0.28
C27A A40C	0.155
C26U A30U	0.556
G29U A35U	0.892
A30C G36A	0.164
G29C A33U	0.579
G29C A33G	0.573
G28U A30U	0.985
G28U A35C	0.888
A30C G45A	0.733
A30C G45C	0.266
A30C G42U	0.0949
A30C G42A	0.129
A30G A35C	0.792

Variant	self-cleavage
A30G A35U	0.782
A30G A33G	0.806
C27G G44A	0.0871
G28C A35U	0.806
G28C A35C	0.912
G28C A35G	0.596
A30G C46A	0.763
G28A U37A	0.465
C26U G41A	0.109
C26U G43C	0.0933
C26U G43U	0.111
C26U G43A	0.125
G28A G44U	0.874
G28C A32C	0.728
G29C G45C	0.211
G28A G48U	0.778
G28A G48C	0.94
C27G A30U	0.0941
C27G A33C	0.0584
C27G A33U	0.0804
C27U G45A	0.819
C27U G45C	0.354
G29U G44C	0.858
G29U G44A	0.79

Variant	self-cleavage
G29U U37G	0.418
G29C C46G	0.586
G29C C46U	0.769
G29C C46A	0.708
C27G U31G	0.0669
C27G U31A	0.099
G29C A32C	0.662
G29C A32G	0.519
C26U U37A	0.121
G29U A34G	0.684
G29A G38A	0.772
G29A G38C	0.7
G29C A34U	0.292
G28C G42A	0.185
G28C G42U	0.169
G28C G42C	0.296
G29A G45U	0.578
G29A G45A	0.724
G29A U37C	0.444
G28C G43A	0.228
G28C G43C	0.149
G28C G38C	0.531
G28C G38U	0.64
C27U G42U	0.177

Variant	self-cleavage
C27U G42C	0.19
C27U G42A	0.184
G28A G41U	0.397
G28A G41C	0.177
A30G G36A	0.761
C26U G44C	0.172
G29C G48A	0.56
G29C G48C	0.688
C26U G38U	0.201
G29U G41A	0.422
G29U G41U	0.521
C27G A34C	0.0686
C27G A34G	0.124
C27G A34U	0.0972
G28A A35G	0.575
G28C A33U	0.556
C27G G36C	0.0945
G29A A35U	0.887
G29A A35C	0.762
C27U A33C	0.764
C27U C46U	0.822
C27U C46G	0.914
G29C G36A	0.188
G29C G36C	0.122

Variant	self-cleavage
A30C G48C	0.933
A30C G48U	0.759
G28C G45A	0.552
C27G G39C	0.105
G28U G48U	0.809
G28U G48C	0.921
G28U G48A	0.726
C26U G45A	0.232
C26U G45C	0.0973
G29C G39C	0.14
A30C G44A	1.01
C26U G39U	0.102
C26U G39C	0.0911
A30C A35G	0.38
A30C A35C	0.808
C26U G36C	0.129
C27U U31C	0.651
C26U U31G	0.503
C26U U31C	0.495
G28C G48C	0.83
G28C G48U	0.543
C27A G28C	0.323
C27A G28U	0.37
C27A G43U	0.122

Variant	self-cleavage
G29A G39A	0.381
G29A G39C	0.166
G28U G29U	0.972
G29U G43U	0.299
G29C G43C	0.118
G29C G43A	0.119
C27U A34C	0.0865
C27U A34U	0.567
G29A U31C	0.986
G29A U31A	1.17
G29A U31G	0.926
G29U U31A	0.999
C26U G47C	0.181
C26U G47A	0.149
C26U G47U	0.15
C27A G47C	0.183
A30G A40C	0.215
A30G A40U	0.0959
G28U G39A	0.362
G28U G39C	0.15
C27A A33C	0.245
C27A A33G	0.294
C27A A33U	0.334
G28U G42U	0.238

Variant	self-cleavage
G28U G42C	0.407
C27G A35U	0.0981
C27G A35G	0.108
C27G A35C	0.104
G29C A35G	0.544
G29C A35C	0.701
G29C A35U	0.885
C27A G48U	0.397
C27A G48A	0.275
G28C A30U	0.857
C27A U31A	0.676
C27A U31G	0.629
G29U A32U	0.911
G29U A32G	0.781
G28C A40G	0.188
G28C A40C	0.179
A30C U37A	0.231
A30C U37C	0.154
A30C A33G	0.58
G28U G38U	0.766
G28U A34G	0.574
C27A G39C	0.0948
C27A A30G	0.529
G28A A34U	0.497

Variant	self-cleavage
C26U G42U	0.15
C26U G42C	0.15
C26U G42A	0.13
C27G G29A	0.0827
C27G G29C	0.0656
C27A G42U	0.113
C27A G42C	0.139
C27G C46G	0.1
C27G G45A	0.0977
C27G G45C	0.0921
C27G G45U	0.0905
G29U A30C	1.06
G29U A30U	0.912
A30C G39A	0.189
G28U U31A	0.881
G28U U31C	0.946
C26U A33C	0.203
C26U A33G	0.17
C26U A33U	0.266
C27U G47C	0.323
C27U G47U	0.632
C27U G47A	0.56
G29A A34C	0.282
G29A A34U	0.833

Variant	self-cleavage
C26G U37A	0.126
C26G U37G	0.115
C26G U37C	0.0957
G29A A30G	0.892
G29A A30U	0.709
G29A A30C	0.865
A30C G47C	0.17
G28C G39U	0.173
G28C G39A	0.445
A30C A32G	0.821
C27U G39A	0.253
C27U G39C	0.136
G29C A40C	0.153
G29C A40U	0.101
G29U G36A	0.481
G28A G42C	0.272
G28A G42A	0.263
G28A G29C	0.71
G28A G29U	0.9
G29A G42C	0.46
G29U G38A	0.775
G29U G38C	0.778
G29C U31C	0.999
G28A A33C	0.873

Variant	self-cleavage
G29U G47C	0.364
G29U G47A	0.71
G29U G47U	0.694
A30C	0.911
A30G	0.952
G29A G41C	0.22
G29A G41A	0.452
C27U A35G	0.271
C27U A35U	0.775
G28C G36U	0.101
A30C A34G	0.326
C27U G48C	0.844
C27U G38C	0.644
G29C G41A	0.108
G29C G41U	0.125
C27U G43C	0.135
G28A G38C	0.691
G28A G38U	0.681
C27A A34U	0.145
G29U G45C	0.294
G29U G45U	0.574
G29U G45A	0.812

Source: the RNAGym collection of RNA variant scans (doi:10.7554/elife.80360)
